According to patent US20100233678:

Legend:
[1] = system: IgG, polyclonal (Mus musculus); assay: FP; conditions: 10 nM DNA, 1 uM IgG, PBS pH 7.0, 45 min
[2] = system: IgG, polyclonal (ChromPure) (Homo sapiens); assay: filter; conditions: ultrafiltration, 41 mM Na+, pH 6
[3] = system: IgG, polyclonal (Mus musculus); assay: filter; conditions: 37.5 mM NaCl, 3.75 mM sodium citrate, pH 6.0
[4] = system: IgG Fab2 fragment (Mus musculus); assay: filter; conditions: 37.5 mM NaCl, 3.75 mM sodium citrate, pH 6.0
[5] = system: IgA, monoclonal (Homo sapiens); assay: filter; conditions: 37.5 mM NaCl, 3.75 mM sodium citrate, pH 6.0
[6] = system: IgG Fab2 fragment (Homo sapiens); assay: filter; conditions: 37.5 mM NaCl, 3.75 mM sodium citrate, pH 6.0
[7] = system: IgM, monoclonal (Homo sapiens); assay: filter; conditions: 37.5 mM NaCl, 3.75 mM sodium citrate, pH 6.0
[8] = system: IgG4, monoclonal (Homo sapiens); assay: filter; conditions: 37.5 mM NaCl, 3.75 mM Na citrate, pH 6.0
[9] = system: IgG3, monoclonal (Homo sapiens); assay: filter; conditions: 37.5 mM NaCl, 3.75 mM Na citrate, pH 6.0
[10] = system: IgG1, monoclonal (Homo sapiens); assay: filter; conditions: 37.5 mM NaCl, 3.75 mM sodium citrate, pH 6.0
[11] = system: IgG2, monoclonal (Homo sapiens); assay: filter; conditions: 37.5 mM NaCl, 3.75 mM sodium citrate, pH 6.0
[12] = system: IgG Fc fragment (Homo sapiens); assay: filter; conditions: 37.5 mM NaCl, 3.75 mM sodium citrate, pH 6.0
[13] = hexaethylene glycol (iSp18) linkers as both loops

| Sequence | Ka (log10 Ka (M-1)) [3] | Ka (log10 Ka (M-1)) [4] | Ka (log10 Ka (M-1)) [5] | Ka (log10 Ka (M-1)) [6] | Ka (log10 Ka (M-1)) [7] | Ka [8] | Ka [9] | Ka (log10 Ka (M-1)) [10] | Ka (log10 Ka (M-1)) [11] | also measured |
| --- | --- | --- | --- | --- | --- | --- | --- | --- | --- | --- |
| GGAGGTGCTCCGAAAGGAACTCC [RAD30] | – | – | – | – | – | – | – | – | – | binding signal (% polarization change) [1]: 15 |
| CGCGAAAACGCG [RAD22] | – | – | – | – | – | – | – | – | – | Ka (log10 Ka (M-1)) ([2]; pH 5 5.95, pH 7 6.04, pH 8 5.97): 6.25 |
| AGGCCGCGCCCCCCGCGCCCACCGCCCCGGTGCC [RAD29] | – | – | – | – | – | – | – | – | – | binding signal (% polarization change) [1]: 19 |
| CCTTCCTTTGGAAGGTTG [RAD23] | 6.77 | 6.33 | 6.38 | 5.64 | 6.08 | 5.97 log10 M-1 | 5.62 log10 M-1 | 6.14 | 6.86 | Ka (log10 Ka (M-1)) ([2]; pH 5 7.37, pH 7 6.31, pH 8 6.21): 6.88 |
| TCCCTTTCCCTTTCCCTTTCCC [RAD28] | – | – | – | – | – | – | – | – | – | binding signal (% polarization change) [1]: 22 |
| TTTGGTTGGTTTGGTTGG [RAD19] | – | – | – | – | – | – | – | – | – | Ka (log10 Ka (M-1)) ([2]; inosine at I positions [inosine at 4,14], pH 5 7.82, pH 7 6.50, pH 8 6.04): 7.14 |
| TTTTCGCGCGTTAACGCGCGAA [RAD16] | 7.07 | 6.11 | 6.46 | 6.23 | 6.26 | 6.54 log10 M-1 | 6.31 log10 M-1 | 6.87 | 6.11 | Ka (log10 Ka (M-1)) ([2]; pH 5 8.22, pH 7 7.25, pH 8 6.79): 7.8 |
| TCCTTTCCTTTCCTTTCCT [RAD27] | – | – | – | – | – | – | – | – | – | binding signal (% polarization change) [1]: 22 |
| TGGAGTCTGCGCGAGTCAGCGCTCAAGATC [RAD8] | – | – | – | – | – | – | – | – | – | Ka (log10 Ka (M-1)) ([2]; pH 5 8.41, pH 7 6.86, pH 8 6.84): 7.85 |
| GGTTGGTTTGGTTGG [RAD13 (TTT-aptamer)] | – | – | – | – | – | – | – | – | – | Ka (log10 Ka (M-1)) ([2]; pH 5 7.55, pH 7 6.46, pH 8 6.53): 6.96 |
| TTCCTTCCTTCCTTCCTTC [RAD25] | – | – | – | – | – | – | – | – | – | binding signal (% polarization change) [1]: 22 |
| TGGGCCGGTAACGGGTTACCGTAAGGTCCC [RAD10] | 7.53 | 6.76 | 6.92 | 6.43 | 6.7 | 7 log10 M-1 | 6.62 log10 M-1 | 7.04 | 7.01 | Ka (log10 Ka (M-1)) [12]: 5.92; Ka (log10 Ka (M-1)) ([2]; pH 5 8.41, pH 7 6.81, pH 8 6.72): 7.65 |
| CCTCTTCHEGCTTCTCCHEGGGAGAAG [RAD1] | – | – | – | – | – | – | – | – | – | Ka (log10 Ka (M-1)) [3, 13]: 6.6; Ka (log10 Ka (M-1)) [4, 13]: 6.38; Ka (log10 Ka (M-1)) [5, 13]: 6.37; Ka (log10 Ka (M-1)) [6, 13]: 5.82; Ka (log10 Ka (M-1)) [7, 13]: 6.32; Ka (log10 Ka (M-1)) [12, 13]: 5.8; Ka (log10 Ka (M-1)) [10, 13]: 6.38; Ka (log10 Ka (M-1)) [11, 13]: 6.51; Ka (log10 Ka (M-1)) ([2]; hexaethylene glycol (iSp18) linkers as both loops, pH 5 7.45, pH 7 6.49, pH 8 6.30): 6.51 |
| GGAAAGGTTTTTGGAAAGGTTTTTCCTTTCC [RAD6] | – | – | – | – | – | – | – | – | – | Ka (log10 Ka (M-1)) ([2]; pH 5 8.50, pH 7 6.86, pH 8 6.74): 7.96 |
| TCTCTCTCTCTCTCTCTCT [RAD26] | – | – | – | – | – | – | – | – | – | binding signal (% polarization change) [1]: 38 |
| TGGTTGGTTTTTGGAAGGATTTTTTCCTTCC [RAD3] | 7.69 | 7.09 | 7.38 | 6.97 | 6.71 | 7.2 log10 M-1 | 6.69 log10 M-1 | 7.45 | 7.36 | Ka (log10 Ka (M-1)) [12]: 6.34; Ka (log10 Ka (M-1)) ([2]; pH 5 8.60, pH 7 6.86, pH 8 6.76): 7.79 |
| TTTTCGCGCGTACGCGCGCGAA [RAD15] | 6.35 | 6.21 | 6.23 | 5.33 | 6.19 | 6.13 log10 M-1 | 6.22 log10 M-1 | 6.39 | 6.18 | Ka (log10 Ka (M-1)) ([2]; pH 5 7.65, pH 7 6.33, pH 8 6.19): 7 |
| TGGGCCGGTAACGGATTACCGTAAGGTCCC [RAD11] | – | – | – | – | – | – | – | – | – | Ka (log10 Ka (M-1)) ([2]; pH 5 8.31, pH 7 6.85, pH 8 6.85): 7.64 |
| TTTTCGCGTGTGTGCGCGAA [RAD12] | – | – | – | – | – | – | – | – | – | Ka (log10 Ka (M-1)) ([2]; pH 5 7.61, pH 7 6.37, pH 8 5.74): 6.98 |
| CCCTCCCTGGGCTTTTTTTGATTTTTCTTAA [RAD4] | 7.71 | 7.09 | 7.66 | 6.89 | 6.89 | – | – | 7.52 | 7.67 | Ka (log10 Ka (M-1)) [12]: 5.26; Ka ([8]; control oligo): 7.13 log10 M-1; Ka ([9]; control oligo): 6.66 log10 M-1; Ka (log10 Ka (M-1)) ([2]; pH 5 8.48, pH 7 7.10, pH 8 7.02): 8.13 |
| CCTCTTCCTTCTCCGGAGAAG [RAD1] | – | – | – | – | – | – | – | – | – | Ka ([8]; two hexaethylene glycol (iSp18) linkers as loops [iSp18 (hexaethylene glycol) linkers left out between 7-8 and 14-15]): 6.37 log10 M-1; Ka ([9]; two hexaethylene glycol (iSp18) linkers as loops [iSp18 (hexaethylene glycol) linkers left out between 7-8 and 14-15], ultrafiltration, Picogreen): 6.17 log10 M-1 |
| TCCTCTTCTTTTTCTTCTC [RAD24] | – | – | – | – | – | – | – | – | – | binding signal (% polarization change) [1]: 21 |
| CCTCTTCTTTTTCTTCTC [RAD20] | 8.3 | 7.41 | 7.53 | 6.9 | 7.02 | 7.67 log10 M-1 | 6.84 log10 M-1 | 7.34 | 7.85 | Ka (log10 Ka (M-1)) [12]: 5.96; Ka (log10 Ka (M-1)) ([2]; pH 5 8.11, pH 7 7.40, pH 8 6.64): 7.98 |
| GAGTGAGTCTCAGTTAGTTTCGATTGATTCT [RAD5] | – | – | – | – | – | – | – | – | – | Ka (log10 Ka (M-1)) ([2]; pH 5 8.75, pH 7 7.11, pH 8 6.81): 8.03 |
| CTCTCTCTTTTTCTCTCTCTTTTTGAGAGAG [RAD9] | 7.46 | 6.75 | 6.95 | 6.44 | 6.79 | 7.06 log10 M-1 | 6.62 log10 M-1 | 7.05 | 7.05 | Ka (log10 Ka (M-1)) [12]: 5.87; Ka (log10 Ka (M-1)) ([2]; pH 5 8.67, pH 7 7.04, pH 8 6.94): 7.74 |
| GAGAGAGTTTTTGAGAGAGTTTTTCTCTCTC [RAD7] | 7.69 | 6.97 | 7.33 | 6.68 | 6.89 | 7.16 log10 M-1 | 6.74 log10 M-1 | 7.3 | 7.25 | Ka (log10 Ka (M-1)) [12]: 5.99; Ka (log10 Ka (M-1)) ([2]; pH 5 8.51, pH 7 6.97, pH 8 6.79): 8.04 |
| CCTCTTCTTTTTCTTCTCCTTTTTGGAGAAG [RAD2] | 7.49 | 6.71 | 6.9 | 6.45 | 6.73 | 7.08 log10 M-1 | 6.64 log10 M-1 | 7.04 | 7.06 | Ka (log10 Ka (M-1)) [12]: 5.86; Ka (log10 Ka (M-1)) ([2]; pH 5 8.74, pH 7 6.96, pH 8 6.57): 7.61 |
